Measured values published in patent US20240199727A1 (INVETX, published 2024).
Changes are numbered by the printed parent chain.

Experiments:
[1] = molecular target: canine NGF tagged at the C-terminus with the Flag tag (canine); experiment: SPR, Biacore T200; antibody captured on anti-feline CM5 chip, NGF analyte, 1:1 fit
[2] = molecular target: T1, canine NGF tagged at the C-terminus with the Flag tag (canine, UniProt A0A8I3PYI3 122-241); experiment: SPR competition; Ab pre-incubated with 50 nM NGF at Ab to NGF ratio 1 to 1, injected over captured feline p75 (competitor)
T1 construct: mature; also called feline NGF (processed form identical)
T1 sequence (A0A8I3PYI3 entry or part of it): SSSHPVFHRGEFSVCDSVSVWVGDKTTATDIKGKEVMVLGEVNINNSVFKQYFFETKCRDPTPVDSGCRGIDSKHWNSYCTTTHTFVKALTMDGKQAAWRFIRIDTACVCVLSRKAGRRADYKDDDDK

[3] = molecular target: T1, canine NGF tagged at the C-terminus …; experiment: SPR competition; Ab pre-incubated with 10 nM NGF at Ab to NGF ratio 50 to 1, injected over captured feline TrkA (competitor)
[4] = molecular target: T1, canine NGF tagged at the C-terminus …; experiment: SPR competition; Ab pre-incubated with 10 nM NGF at Ab to NGF ratio 10 to 1, injected over captured feline TrkA (competitor)
[5] = molecular target: T1, canine NGF tagged at the C-terminus …; experiment: SPR competition; Ab pre-incubated with 50 nM NGF at Ab to NGF ratio 5 to 1, injected over captured feline p75 (competitor)
[6] = molecular target: T2, canine NGF tagged at the C-terminus with the Flag tag (canine, UniProt A0A8I3PYI3 122-241); experiment: SPR Biacore T200; antibody captured on protein A chip, NGF analyte
T2 construct: Baculovirus expression
T2 sequence (A0A8I3PYI3 entry or part of it): as above
Description: The running buffer was HBS-EP buffer (10 mM HEPES, pH 7.4, 150 mM NaCl, 3 mM EDTA, 0.005% tween 20) and the instrument temperature was set at 25 °C. […] The binding signals were corrected for the blank and the resulting sensorgram (FIG. 5) was used to determine the rate constants (kₐ and kd) and binding affinity (KD) using a one-to-one binding model with the BIAEVAL software.

Sequence of canine NGF tagged at the C-terminus with the Flag tag (canine) (chain, as listed by the source): as the sequence (A0A8I3PYI3 entry or part of it) above

B1: SC-184_76 (antibody, from a related filing, V domains shown)
VH: DVQLVESGGDLVKPGGSLRLTCVASGLSLTSDSMSWVRQAPGKGLQWVSTLWSNGGTYYTDSVKGRFTISKDNAENTLYLQMNNLKTEDTATYYCASIYYYEADYLHWYFDFWGQGALVTVSS
VL: EIQMTQSPTSLSASVGDRVTITCRASEGIANNLSWYQQTPGKAPKLLIYATSNLHSGVPSRFSGSGSGTDFTLTISSLQPEDFATYYCQQGFKWPLTFGGGTKLEIT
Q: Which results are given for B1?
A: Kd [1]: 0.472 nM; koff [1]: 0.000396 s⁻¹; kon [1]: 838000 M⁻¹ s⁻¹

B2: SC-184_110-Arg (antibody, V domains shown)
VH: B1 VH with D32A, L51I, W52Y, G55R, D104E
VL: B1 VL with A30S, N31K, S52D, F92W
Q: What does the source list for B2?
A: % Block [2]: 100%; % Block [3]: 100%; % Block [4]: 100%; % Block [5]: 100%

B3: felinized clone 101 (antibody, V domains shown)
VH: B1 VH with D32S, L51I, W52Y, E102D
VL: B1 VL with A30S, F92Y
Q: B3 was tested. Which “% Block” value [2] did it give?
A: 42%

Q: And the “% Block” value [3]?
A: 76%

Q: And the “% Block” value [4]?
A: 15%

Q: What about the “% Block” value [5] of the same binder?
A: 87%

B4: SC-184_76-Arg (antibody, V domains shown)
VH: B1 VH with G55R
VL: B1 VL
Q: What does the source list for B4?
A: % Block [2]: 100%; % Block [3]: 100%; % Block [4]: 99%; % Block [5]: 100%

B5: SC-184_110 (antibody, from a related filing, IgG1a, V domains shown)
VH: B1 VH with D32A, L51I, W52Y, D104E
VL: B1 VL with A30S, N31K, S52D, F92W
Q: Which results are given for B5?
A: Kd [1]: 0.773 nM; koff [1]: 0.00038 s⁻¹; kon [1]: 492000 M⁻¹ s⁻¹

B6: AHF17602 (antibody, V domains shown)
VH: B1 VH with D32S, S35V, L51I, W52Y, G55R, E102D
VL: B1 VL with F92Y
Q: Which results are given for B6?
A: % Block [2]: 100%; % Block [3]: 100%; % Block [4]: 99%; % Block [5]: 100%

B7: canine 2166 chimeric antibody (antibody, V domains shown)
VH: QVQLKESGPGLVQPSQTLSLTCTVSGLSLTSNSVSWIRQPPGKGLEWMGVIWSNGGTDYNSAIESRLSINRDTSKSQVFLKMNSLQPEDTAMYFCASIYYYDADYLHWYFDFWGPGTMVTVSS
VL: DIQMTQSPASLSASLGETVSIECLASEGISNSLAWYQLKPGKSPQFLIYATSSLQDGVPSRFSGSGSGTQYSLKISGMQPEDEGVYYCQQGYKFPLTFGSGTKLKIKR
notes: also called canine chimeric antibody
Q: For B7, which koff [6] is on record?
A: 3.5e-06 s⁻¹
